For this data set, the target named is T1, propeptide (prosequence) of proteinase K from Tritirachium album Limber.
T1 chain: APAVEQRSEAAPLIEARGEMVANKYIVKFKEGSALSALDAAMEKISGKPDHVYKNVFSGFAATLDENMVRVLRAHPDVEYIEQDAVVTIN

This note sets out measurements from US20070099283.

B1: mature recombinant proteinase K from Tritirachium album Limber (processed, natured from pro-proteinase K) (protein)
chain: AAQTNAPWGLARISSTSPGTSTYYYDESAGQGSCVYVIDTGIEASHPEFEGRAQMVKTYYYSSRDGNGHGTHCAGTVGSRTYGVAKKTQLFGVKVLDDNGSGQYSTIIAGMDFVASDKNNRNCPKGVVASLSLGGGYSSSVNSAAARLQSSGVMVAVAAGNNNADARNYSPASEPSVCTVGASDRYDRRSSFSNYGSVLDIFGPGTSILSTWIGGSTRSISGTSMATPHVAGLAAYLMTLGKTTAASACRYIADTANKGDLSNIPFGTVNLLAYNNYQA
B1: the “proteinase K activity (chromogenic substrate test) of gel filtration fractions” value is recorded as “no activity is found without prior activation”.
